From the nanobody polyreactivity screen of Harvey et al. (2022)

Assay: yeast display, Sf9 membrane polyspecificity reagent, FACS + sequencing; frameworks hold sequencing errors
In short: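 In a synthetic yeast display library (Saccharomyces cerevisiae BJ5465), nanobody expression was induced with galactose for 36–48 hours. FACS gates were set low and high (top ~1%) using anti-HA fluorescence for expression and streptavidin fluorescence for binding of the Sf9 membrane reagent. Each polyreactivity label is drawn from the gate of origin.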

Sequence | polyreactivity (PSR sort gate)
QVQLVESGGGLVQAGGSLRLSCAASGSIFSSYTMGWYRQAPGKERELVAAISSTGSTYYADSVKGRFTISRDNAKNTVYLQMNSLKPEDTAVYYCAARGWYWQQYKGHTRYDYWGQGTQVTVSS | high polyreactivity
QVQLVESGGGLVKAGGSLRLSCAASGFIFVPYAMGWYRQAPGKERELVAAITWSSGGNTYYADSVKGRFTISRDNAKNTVYLQMNSLKPEDTAVYYCAAEWYEAGYWYDYWGQGTQVTVSS | high polyreactivity
QVQLVESGGGIVQAGGSLRLSCAASGSTFTWYAMGLYRQAPGKERELVADISYGGGSTYYADSVKGRFTISRDNSKNTVYLQMNSLKPEDTAVYYCTALGAKGYVKGFDYWGQGTQVTVSS | low polyreactivity
QVQLVESGGGLVQAGGSLRLSCAASGFTFTRNAMGWYRQAPGKERELVAAISSSGTSTYYADSVKGRFTISRDNAKNTVYLQMNSLKPEDTAVYYCAKDFYRRYYSWGLGTQVTVSS | high polyreactivity
QVQLVESGGGLVQAGGRLRVSCATSGRTFGKYAMGWYRQAPGKERELVATISRSGGSTYYADSVKGRFTISRDNAKNTVYLQMNSLNPVDNAVYYCNAVTSRYIWPPGLDRYHYWGQGTQVTVSS | high polyreactivity
QVQLVESGGGLVQAGGSLRLSCAASGSIFVGNAMGWSRQAPGKERELVAAISLSGGSTYFADSVKGRFTISRDNAKNTVYLQMNSLKPDDTAVYYCAAQTKPASRVTYYWYYYWGQGTQVTVSS | low polyreactivity
QVQLVESGGGLVQAGGSLRLSCAASGSTFRYYGMGWYRQAPGKERELVAAISTGGRTNYADSVKGRFTISRDNAKNTVYLQMNSLKPEDTAVYYCAADFLSPAYRPSWYRFDYWGQGTQVTVSS | low polyreactivity
QVQLVESGGGLLQAGGSLRLSCAASGRIFAQYAMGWYRQAPGKEREFDAGISTTGGSTYYADSVKGRFTISRDNAKNTVYLQMNSLKPEETAVYYCAADRRDRSPFYYWGQGTQVTVSS | high polyreactivity
QVQLVESGGGLVQAGGSLRLSCAASGRTFYRYAMGWYRQAPGKERELFAAISGSGTSTSYADSVKGRFTISRDNAKNTVYLQLNSLKPDDTAVYYCAATYYVYYYSRYYYWGQGTQVTVSS | high polyreactivity
QVQLVESGGGLVQAGGSLRLSCAASGSTFFSYAMGWYRQAPGKERELVAAISWIDDGTYYADSVKGRFTISRDNAKNTVYLQMNSLKPEDTAVYYCAADIGAYRTWDYEYWGQGTQVTVSS | low polyreactivity
QVQLVESGGGLVQAGGSLRLSCAASGRIFPPNAMGWYRQAPGKERELVAGITSSGDTTYYADSVKGRFTISRDNAKNTDYLQMNSLKPEDTAVYYCAKDEVYADDRSALFDYWGQGTQVTVSS | low polyreactivity
QVQLVESGGGLVQAGGSLRLSCAASGSIFIDNAMGWYIQAPGKEREFVAAISKSGTSTYYADSVNGRFTISRDNAMNAVDLQMNSLKPEDTAVYYCAVRRPRPYSNYYYWGQGTQVTVSS | high polyreactivity
QVQLVESGGGLVQAGGSLRISCAASGFTFSQYAMGRYRQAPGKERELVAAISVSGGTTYYADSVKGRFTISRDNAKNTVYLQMNSLKPEDTAVYYCDARTPFSSSPYVNTSGYYYWGQGSQVTVSS | high polyreactivity
QVQLVASGGGLVQSGGSLRLSCAASGFIFAYYAMGWYRQAPGTERELVAAISRGGRPYYADSVKGRFTISRDNAKNTVYFQMNSLKPEDTAVYYCAARRWRRYQSGGSYSGMDHWGQGTQVTVSS | high polyreactivity
QVQLVESGGGLVQAGGSLRLSCAASGLTFLDYAMGWYRPAPGKERELVAAITSGGSTNYADSVKGRFTISRDNAKNTVYLQMNSLKPEDTAVYYCATDLEVSAYDYWGQGTQVTVSS | low polyreactivity
QVQLVESGGGLVQAGGSLRLSCAASGSTFTKYSMGWYRQAPGKERELVAAITGSGGRTYYADSEKGRFTISRDNAKNTVYLQMNSLKPEDTAVYYCAAEKAAGWYSGYDYWGQGTQVTVSS | high polyreactivity
QVQLVESGGGLVQAGGSLRLSCAATGFTFGRYAMGWYRQAPGKERELVAAITWSGGSTYYADSVKGRFTISRDNAKNTVYLQMNSLKPEDTAVYYCNRLSNNREYDYWGQGTQVTVSS | high polyreactivity
QVQLVESWGGLVQAGGSLRLSCAASGSNFELYAMGWYRQAPGKERELVASITWSASNTHYADSVKGRFTISRDNAKNTVYLQINSLKTEDTAVYYCAKDVLYGLFDGDSWGQGTQVTVSS | low polyreactivity
QVQLVESGGGLVQAGGSLRVSCAASGGIFGWYAMGWSRQAPGKERELVATITWRGGRTYYADSVKGRCTISRDNAKNTVYLQLTSLKPESTAVYYCTAEWLWYDAGYRYTIRDSWGQGTQVTESS | low polyreactivity
QVQLVESGGGLVQAGGSLRLSCAASGSTFGHYAMGWSRQAPGKERELVARITSDDSTSYADSVKGRFTISRDNAKNTVYLQMNSLKPEDTAVDYCAARYYSYSWHPARYQGRYSWGQGTQVTVSS | high polyreactivity
QVQLVESGGGLVQAGGSLRLSCAASGRIIGLYARGWYRQAPGKERELVAAITWRGGRTYYADSVKGRFTISRDNAKNTVYVQMNRLSPEDTAVYYCAADLSNSLDYWGQGSQVTVSS | high polyreactivity
QVQLVESGGGLVQAGGSLRLSCAASGSIFGYYTMGWYRQAPGKERELVAGIDFITTSTYYADSVKGRFTISRDNAKNTVYLQMNSLKPEDTAVYYCNADPFTGYDYWGQGTQVTVSS | low polyreactivity

Sequence | polyreactivity (PSR sort gate)
QVQLVESGGGLVQAGGSLRLSCAASGRIFYPYAMGWYRQAPGKEREFVATITASGGSTYYADSVKGRVTISRDNAKNTVYFQMNSLKPEDTAVYYCAADDPGYYQVEYWGQGTQVTVSS | high polyreactivity
QVQLVESGGGLVQAGGRLRLSCAASGSTVRYYAMGGYRQAPVKERELVAAITSGGRTYYADSVKGRFTISRDNAKNTVYLQMNSLKPEDTAVYYCNARRYGSGMDYWGQGTQVTVSS | low polyreactivity
QVQLVESGGGLDQAGGSLRLSCAASGLTFGGNAMGWYRQAPGKERELVAAISWSDDTTDYADSVKGRFTISRDNAKNTVYLQMNSLKPEDTAVYYCAARLPFEHVDYWGQGTQVTVSS | low polyreactivity
QVHLVESGGGLVQAGGSLRLSCAASGSTFSGNGMGWYRQAPGKERELVAAINWYGGTTYYADSVKGRFTISRDNAKNTVYLQMNSLKQEDTAVYYCARESTLTYYSDDFDYWGQGTQVTVSS | low polyreactivity
QVQLVESGGGLVQAGGSRRLSCAASGLTVHDNGMGWYRQAPGQEREVVAAISWSDGTTYYADSVKGRVSISRDNAKNTVYLQMNSLKPEDTAVFYCAAEAYYFWDLVDEDYWGQGTQVTVSS | high polyreactivity
QVQLVESGGGLVQEGGSLRLICAASGIIFYFYAMGWYRQAPGKERELVAAISSGGGSTYYADSVKGRFTISRDNAKNTVYLQMNSLKPEDTAVYYCAAKIGRNFDWGQGTQVTVSS | high polyreactivity
QVQLVESGGGLVQAGGSLRLSCAASGSTIFSYAMGWYRQAPGKERELVAAISWIDDGTYYADSVKGRFTISRDNAKNTVYLQMNSLKPEDTAVYYCAADIGAYRTWDYEYWGQGTQVTVSS | low polyreactivity
QVQLVESGGGLVQAGGSLRLSCAASGSTFTLNAMGWYRQAPGKERELVADISWSSGRTYYADSVKGRFTISRDTAKNTVYLQMNSLKPEDTAVYYCATEDFWNVKFYAYYPEFDYWGQGTQVTVSS | low polyreactivity
QVQLVESGGGLVQAGGSLRLSCAASGFIFAASALGWSRQAAGKEREFVAAISNSGTSTYYADSVKGRFTISRDNAKNTVYLQMNSLKPEDTAVYYCAAPWSTAYDYWGQGTQVTVSS | high polyreactivity
QVQLVESGGGLVQAGGSLRLSCAASGFIFLAYAMGWYRQAPGKERELVAAISRSGGRTYYADSVKGRFTISRDNAKNTVYLQMNSLKPEDTAVYYCAPLANGTNGFYYWGQGTQVTVSS | high polyreactivity
QVQLVESGGGLVQAGGSLRLSCAASGRILSPYAMGWYRQAPGKERELVAAITSGGRTHYADSVKGRFTISRDNAKNTVYLQMNSLKRVDTAVYYCAARVRSGWWVRDDYWGQGTQVTVSS | high polyreactivity
QVQLVESGGGLVQAGGSLRLSCAASGRTFKKYAMGWYRPAPRKERELVAAITGSGGSTYYADSVKGRFTISRDNAKNTVYLQMNSLKPEDTAVYYCAAYAYGVWHSQDGGNYWGQGTQVTVSS | low polyreactivity
QVQLVESGGGLVKAGGSLRLSCAASGSIFYFNAMGWYRQAPGKERELVATIRSGDGRTYYADSVKGRFTISRDNAQNTVYLQMNSLKPEDTAVYYCNASRVVYRQAYVYGYDYWGKGTQVTVSS | low polyreactivity
QVQLVESGGGLVQAGGSLRLSCAASGSIFGRYGMVWSRPAPGKERELVAAITSATRTNYADSVKGRFTISRDNAKNTVYLQMNSLKPEDTAVYYCAKQTYRRLPQTPYNYWGQGSQVTVSS | low polyreactivity
QVQIVESGGGLVQAGGSLRLSCAASGITLSYNAMGWYRPATEKDRELVAGISYSGGRTYYADSVKGRFTISRDNAKNTVYLQMYSLKPEVTAVYYCATDLYISFRYGGYFWGQGTQVTVSS | high polyreactivity
QVQLVESGGGLVQAGGSLRLSCAASGITISGYAMGWYRQAPGKERELVAAISRRGGSTYYADSVKGRFTISRDNAKNTVYLQMNSLKPEDTAVYYCARYPSRNYNYWGQGTQVTVSS | high polyreactivity
QVQLVESGGGLVQAGGSLRLSCAASGSIFVEYAMGVYREAPGKERELVATINLSAGSTYYADSVKGRFTISRDNAMNTGYLQMNRLKPEDTAVYYCAALYYWDQPQLEFSYLGQGTQVTVSS | low polyreactivity
QVQLVESGGGLVHAGGSLRLSCAASGFIFAYYAMGWYRQAPGKERELVAAIDSAGRTTYADSVKGRFTISRDNAKNSVYLQMNSLKPEDTAVYYCAKFTPSVYKLSLQQGYDYWGQGNQVTVSS | high polyreactivity
QVQLVESGRGLVQAGGSLRLSCAASGSNFRAYAMGWSRQAPGKERELVAAISIGGRTYYADSVKGRFTISRDNAKNTVYLQMNSLKPEDTAVYYCAAVRSYVKGGMYYWGQGTQVTVSS | low polyreactivity
QVQLVESGGGLVQAGGSLRLSCAASGYTFTRYAMGWYRQAPGKEREFVAAITSGGGSTYYADSVKGRFTISRDNAKNTVYLQMNSLKPEDTAVYYCAADLTSLWYTVQLELDFWGQGTQVTVSS | low polyreactivity
QVQLVESGGGLVQAGGSLRLSCAASGRIFYSYAMGWYRQATGKEREMVASISRSGAITNYADSVKGRFTISRDNAKNPVYLQMNSLIPEDTAVYYCAARLRRVYPPYDYWGQGTQVTVSS | high polyreactivity
